Numbered stars: 1 amine (or outer) side, 2 acyl side, 3 side chain; on linkers, the order of the positions; unused ones are H or OH. Square brackets hold non-standard residues; d marks the D form. Ends that are not written are not given here. γGlu = O=C(O)[C@H](CCC(=O)[*:2])N[*:1]

The test has as its target T1, feline calcium-sensing receptor (fCaSR) from Felis catus, full length, expressed in HEK T-Rex/natClytin cells … (Felis catus).
T1 chain: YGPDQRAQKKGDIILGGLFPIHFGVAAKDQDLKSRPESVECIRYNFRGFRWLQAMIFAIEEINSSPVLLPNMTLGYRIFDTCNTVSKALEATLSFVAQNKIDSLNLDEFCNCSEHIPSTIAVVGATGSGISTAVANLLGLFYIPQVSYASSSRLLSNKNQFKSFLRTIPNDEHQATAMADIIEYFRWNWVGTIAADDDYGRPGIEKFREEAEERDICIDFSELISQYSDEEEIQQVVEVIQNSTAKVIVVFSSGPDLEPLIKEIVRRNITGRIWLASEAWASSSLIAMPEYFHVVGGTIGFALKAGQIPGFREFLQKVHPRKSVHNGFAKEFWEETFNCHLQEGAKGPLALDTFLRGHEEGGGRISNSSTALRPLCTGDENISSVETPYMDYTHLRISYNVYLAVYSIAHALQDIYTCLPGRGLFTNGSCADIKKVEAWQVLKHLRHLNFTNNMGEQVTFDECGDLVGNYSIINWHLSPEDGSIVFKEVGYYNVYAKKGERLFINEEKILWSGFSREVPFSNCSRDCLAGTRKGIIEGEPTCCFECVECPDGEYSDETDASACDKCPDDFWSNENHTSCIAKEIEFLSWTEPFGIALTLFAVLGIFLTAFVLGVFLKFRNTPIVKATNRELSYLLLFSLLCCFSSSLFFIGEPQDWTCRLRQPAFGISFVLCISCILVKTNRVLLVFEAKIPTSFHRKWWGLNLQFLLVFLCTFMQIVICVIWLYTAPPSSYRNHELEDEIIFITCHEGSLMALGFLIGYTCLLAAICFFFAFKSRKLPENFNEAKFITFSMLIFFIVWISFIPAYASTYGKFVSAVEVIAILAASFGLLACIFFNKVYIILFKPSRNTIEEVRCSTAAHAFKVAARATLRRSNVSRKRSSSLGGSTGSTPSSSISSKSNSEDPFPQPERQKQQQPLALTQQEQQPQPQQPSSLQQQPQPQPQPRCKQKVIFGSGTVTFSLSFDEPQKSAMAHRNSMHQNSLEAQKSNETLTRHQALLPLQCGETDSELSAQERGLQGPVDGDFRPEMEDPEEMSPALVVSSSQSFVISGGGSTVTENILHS
The experiment in a line: cell-based or functional assay.

Consider [γGlu]-Cys-Gly (also: γ-glutamyl peptide bond between Glu side chain and Cys) [L-Glutathione (γ-Glu-Cys-Gly)], for which the “Agonist EC50” value worked out at 8.2 mM.

These data come from patent publication US20190324031A1 (MARS, published 2019).
